{"source": "paper PMC3582033", "about": "(Cell, 2011)", "binders": {"B1": {"name": "TRIM33 PHD-Bromo cassette (domain or fragment)", "chain": "DDDPNEDWCAVCQNGGDLLCCEKCPKVFHLTCHVPTLLSFPSGDWICTFCRDIGKPEVEYDCDNLQHSKKGKTAQGLSPVDQRKCERLLLYLYCHELSIEFQEPVPASIPNYYKIIKKPMDLSTVKKKLQKKHSQHYQIPDDFVADVRLIFKNCERFNEMMKVVQVYADTQEINLKADSEVAQAGKAVALYFEDKLTEIYSDRTFA"}}, "key": {"[1]": {"target": "H3(1-28)K9me3K18ac histone peptide (UniProt P68431 2-29, trimethyl-lysine at K9; acetyl-lysine at K18)", "assay": "ITC"}, "[2]": {"target": "H3(1-28) with acetylated K18 (UniProt P68431 2-29, acetyl-lysine at K18)", "assay": "ITC"}}}
{"binder": "B1", "values": [{"measurement": "fold enhancement of binding over unmodified H3(1-28)", "setting": "[1]", "result": 3.5, "unit": "fold"}, {"measurement": "fold enhancement of binding over unmodified H3(1-28)", "setting": "[2]", "result": 2.3, "unit": "fold"}]}
